In patent US20240424115A1, “LONG-ACTING INTERLEUKIN-15 RECEPTOR AGONISTS AND RELATED IMMUNOTHERAPEUTIC COMPOSITIONS AND METHODS” (Nektar Therapeutics, priority 2017, published 2024):
Values joined by “and” are separate entries in the source; they are usually repeats but may differ in a detail not shown here. Equal values may be shown once. Read-outs that look alike come from different tables or passages of the source.

What was measured:
IL-15Rα = IL-15Rα (Homo sapiens, UniProt Q13261); assay: Receptor affinity for IL-15Rα by surface plasmon resonance (BIAcore); format: binding; details: for ka: IL-15Rα:Fc captured by anti-Fc
Experimental: The affinities of IL-15 and exemplary long acting rIL-15 receptor agonists were measured using Surface Plasmon Resonance (“SPR”) using a BIAcore™ SPR system. Briefly, the surface of a Biacore CM5 sensor chip was activated using a 1:1 mixture of NHS: EDC to generate active NHS esters. Goat anti-human Fc antibody was covalently attached to the surface by injecting it for five minutes in 10 mM sodium acetate (pH 4). There were approximately 8000 RU of antibodies bound to the surface. Any remaining NHS ester was then quenched with ethanolamine.
At the initiation of each injection cycle, IL-15-Rα-Fc was captured on a sensor chip channel by a five-minute injection step in PBSP. Typically, 150-200 RU of receptors were bound on the surface.
(§1) Long acting rIL-15 receptor agonist test articles were diluted to 10 µM in PBS (containing 0.05% Tween 20 and 0.1 mg/ml BSA). A series of 3-fold dilutions were made and injected onto a sensor chip which was coated with IL-15Rα. The affinities were measured by determining the ka and kd rates separately, and the ratio between kd and ka was used to calculate the Kd values.
The affinities of exemplary long-acting IL-15 receptor agonists (test articles) for the IL-15 α receptor were measured and compared to IL-15. Affinity was measured by BIAcore using IL-15Rα:Fc captured by immobilized anti-Fc.
as §1, with “The” for “Long acting rIL-15 receptor agonist”, “μM” for “µM”, “between ka and” for “between”, “kd” for “kd and ka”, “[…]” for “Kd”

[1] = PK (MRT) of long-acting IL-15 receptor agonists (Table 2B); format: in vivo; details: species not stated
[2] = Single dose PK study in rats (plasma concentration); format: in vivo; details: Sprague Dawley rats, single i.v. 10, 75 and 150 μg/kg
Experimental: Following administration, blood was collected at days 1-7 post administration (with multiple samples collected over the first 24 hours following administration). […]

CD4, CD8, and NK cells = assay: In vivo IL-15 signaling (STAT5 phosphorylation in lymphocytes) in non-human primates; set-up: species or system cynomolgus monkeys; details: NHP
Experimental: In the study, cynomolgus monkeys (cyno), one female and one male, were each intravenously administered a single dose of Conjugate 2 (0.5 mg/kg). A series of blood samples were taken from each animal both prior to treatment (day-6 and-1) and at multiple intervals following treatment for assessment by flow cytometry of STAT5 phosphorylation in various types of lymphocytes (CD4, CD8, and NK cells). Results are provided in FIGS. 9A (CD4), 9B (CD8), and 9C (NK).
Cynomolgus monkeys (n=3-4 males), were administered a single intravenous injection of Conjugate 1 at 0.003, 0.01, 0.1 mg/kg or a vehicle control. Blood samples were collected at the indicated time points pre and post dose (−5, −2, 1, 2, 3, 4, 5, 6, 7, 10, 14, 17 days) and subjected to flow cytometric analysis to examine pharmacodynamic effects within lymphocyte populations. Proliferation (% Ki-67) and JAK/STAT signaling (% pSTAT5) for NK cells, CD8 T cells, and CD4 T cells were examined, with the results shown in FIGS. 45A-C and FIGS. 46A-C, respectively.

IL-15Rα, sequence (Q13261 31-205 limits assumed): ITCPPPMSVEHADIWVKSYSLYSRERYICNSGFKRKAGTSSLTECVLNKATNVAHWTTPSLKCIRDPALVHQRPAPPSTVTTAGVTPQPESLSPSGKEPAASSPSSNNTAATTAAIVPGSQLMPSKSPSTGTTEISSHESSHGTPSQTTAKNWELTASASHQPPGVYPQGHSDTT

IL-15: recombinant human IL-15 from E. coli, SEQ ID NO: 1, non-glycosylated, 12.9 kDa; unconjugated comparator
ka (IL-15Rα; Table 2A): 578000 M⁻¹ s⁻¹ | dissociation rate constant (kd) (IL-15Rα; Table 2A): 0.000149 s⁻¹ | Kd (IL-15Rα; Table 2A, read-out: KD): 0.258 nM | Kd (IL-15Rα; Table 2B, read-out: IL-15Rα KD): 0.258 nM

mono-mPEG-SBA40K-IL-15 [Conjugate 1]
ka (IL-15Rα; Table 2A): 492000 M⁻¹ s⁻¹ | dissociation rate constant (kd) (IL-15Rα; Table 2A): 0.000103 s⁻¹ | Kd (IL-15Rα; Table 2A, read-out: KD): 0.209 nM | Kd (IL-15Rα; Table 2B, read-out: IL-15Rα KD): 0.201 nM and 0.209 nM | alpha receptor affinity of IL-15 retained (IL-15Rα; compared to IL-15): about 80% | PK (MRT) [1]: 21 h | half-life [2]: approximately 18 hours | pSTAT5 in CD8 T cells (CD4, CD8, and NK cells; 0.1 and 0.01 mg/kg): dose-dependent increase in pSTAT5 | dose level at which increase in % pSTAT5 in NK cells can be detected (CD4, CD8, and NK cells; single i.v.): 0.001 mg/kg
